This is an account of results in the RNAGym collection of RNA variant scans (doi:10.1101/gr.219683.116).

B1: mRNA-splicing (parent)
chain: AGUUGCUGCUGGGAGCUCCAGCACAGUGAAAUGGACAGAAGGGCAGAGCAA

Variants of B1 are the subject of the series. Put plainly: exon inclusion enrichment index; higher = more inclusion; WT1 exon 5 minigene, HEK293.
G5C C6G U7C U10C A37G G38A: the “exon inclusion enrichment index” value amounted to 2.92. Then G5C C6A U7C G8A U10A A47U G48A, with 0.071; and G5C C6U G8C C9U U10C A23C, with 1.9. Take G33U G34A: the “exon inclusion enrichment index” value stood at 0.00421. As to C6A U7C C9A U10C A25G G26U, the “exon inclusion enrichment index” value was 4.03. For C6A U7C C9A U10C C22U A23G, the “exon inclusion enrichment index” value worked out at 3.38. On to G5C C6G U7C U10C G41A G42C, for which the “exon inclusion enrichment index” value was 3.88. In the case of G5C C6A U7C G8A U10A G12A G13A, the “exon inclusion enrichment index” value was found to be 0.114.

For the variant G5A U7C G8A U10C G28A A29U, the “exon inclusion enrichment index” value stood at 0.513. For the variant G5C C6A U7C G8A U10A U17C C18A, the “exon inclusion enrichment index” value was 0.063. As to G5C C6G U7C U10C A20U, the “exon inclusion enrichment index” value came out at 3.58.

Turning to C6A U7C C9A G11A, the “exon inclusion enrichment index” value came to 0.337. As to C6A U7C C9A U10C A14U G15C, the “exon inclusion enrichment index” value was determined as 2.67. With G5A C6U U7A G8U C9A A20G G21U, the “exon inclusion enrichment index” value was determined as 0.0713. With U17A C18U, the “exon inclusion enrichment index” value was determined as 1.09.

As for G5C C6A U7C G8A U10A G34A A35C, the “exon inclusion enrichment index” value was found to be 0.0814. For G5A C6G U7G G8C, the “exon inclusion enrichment index” value stood at 0.00742.

Consider G5C C6U G8C C9U U10C A30G A31C, for which the “exon inclusion enrichment index” value worked out at 0.276.

Regarding G5C C6A U7C G8A U10A A29G A30G, the “exon inclusion enrichment index” value came out at 0.0879. Take G5U G8U C9U G46U: the “exon inclusion enrichment index” value worked out at 0.0708. In the case of G5A C6U U7A G8U C9A A23G C24U, the “exon inclusion enrichment index” value was found to be 0.0127. As for G5C C6A U7C G8A U10A G34U A35G, the “exon inclusion enrichment index” value came to 0.0186. A20U G21A: the “exon inclusion enrichment index” value worked out at 1.45.

For the variant G5A C6U U7A G8U C9A A20U G21U, the “exon inclusion enrichment index” value is 0.0251. Regarding G5C C6G U7C U10C A23U C24A, the “exon inclusion enrichment index” value was 2.3. G5U G8U C9U A23C C24A: the “exon inclusion enrichment index” value was 0.231. For G5A U7C G8A U10C A25U, the “exon inclusion enrichment index” value is 2.57. On to G5U U7C G8A U10A, for which the “exon inclusion enrichment index” value amounted to 0.168. Consider G5U U7C G8A U10C, for which the “exon inclusion enrichment index” value is 1.83. The same measure for G5A C6U U7A G8U C9A G42A G43U: 1.03; for G5A U7C G8A U10C G26U U27G: 3.47. Take G5A C6G U7A C9A U10A: the “exon inclusion enrichment index” value is 0.0116. Consider G5C C6U G8C C9U U10C C18G, for which the “exon inclusion enrichment index” value was 2.21.

As to G5C C6G U7C U10C A47C G48C, the “exon inclusion enrichment index” value was found to be 2.99.

As for G5A C6G U7C G8A U10A, the “exon inclusion enrichment index” value stood at 0.00406. Take G5A U7C G8A U10C G38A: the “exon inclusion enrichment index” value was 1.25.

Regarding G5A C6G U7G C9A A25G G26A, the “exon inclusion enrichment index” value stood at 0.0192.

In the case of G5A C6G U7G C9A A25G G26C, the “exon inclusion enrichment index” value came out at 0.0234.

Take G5A C6G U7G C9A U32G: the “exon inclusion enrichment index” value is 0.00176. The same measure for G5U G8U C9U U27A G28A: 0.173; for C6A U7A C9A U10A G34U A35U: 0.0771; for G5C C6U G8C C9U U10C G42A G43C: 4.2. In the case of G5C C6U G8C C9U U10C C18A C19U, the “exon inclusion enrichment index” value was found to be 0.0905.

As to G5A C6G U7G C9A G33U G34C, the “exon inclusion enrichment index” value was 0.00131. The same measure for G5C C6G U7C G8C U10C: 2.87; for G5C C6G U7C U10C C24G: 4.23; for C6A U7C C9A U10C A23C C24A: 3.49.

On to C6A U7C C9A U10C A23C C24G, for which the “exon inclusion enrichment index” value came out at 4.61. With G5A U7C G8A U10C C44U A45C, the “exon inclusion enrichment index” value came out at 3.16. For G5A C6U U7A G8U C9A U10G G11C, the “exon inclusion enrichment index” value turned out to be 0.022. The same measure for G5A C6U U7A G8U C9A G12C: 0.0374; for U3C U4G: 0.0956; for G5C C6A U7C G8A U10A A14G G15C: 0.0391. For C9A, the “exon inclusion enrichment index” value turned out to be 1.96. Take G5A U7C G8A U10C C19U: the “exon inclusion enrichment index” value came out at 0.131. For the variant U32A, the “exon inclusion enrichment index” value amounted to 0.107. Then U27A G28C, with 0.192; and G38U A39U, with 0.000945. The same measure for G5A C6G U7G C9A A31G U32C: 0.00508. The same measure for U4C G5A U7C G8A U10C: 3.18.

For A37U G38C, the “exon inclusion enrichment index” value stood at 0.0886. On to G5A C6U U7A G8U C9A A39U, for which the “exon inclusion enrichment index” value came out at 0.0074.

G5U G8U C9U A20U G21A: the “exon inclusion enrichment index” value turned out to be 0.0475. Then G5C C6G U7C U10C A40G G41U, with 3.4; and G5C C6U G8C C9U U10C A35C, with 0.541. For G5A U7C G8A U10C C22G A23U, the “exon inclusion enrichment index” value was found to be 0.522. The same measure for G5A C6G U7G G8A U10C: 0.159; for C6A U7C C9A U10C G34U A35U: 1.33; for G5C C6U G8C C9U U10C A29G: 2.54.

With G5A C6U U7A G8U C9A C16G U17C, the “exon inclusion enrichment index” value worked out at 0.00521. As to G5C C6U G8C C9U U10C G46C A47G, the “exon inclusion enrichment index” value came to 2.72.

For the variant G5A C6U U7A G8U C9A G28A A29U, the “exon inclusion enrichment index” value was 0.00845. The same measure for G5C C6G U7C U10C G46U: 2.51; for G5A C6U U7A G8U C9A U10C G11C: 0.845. For G26U U27G, the “exon inclusion enrichment index” value was 0.394. For G5A U7C G8A U10C A23G C24G, the “exon inclusion enrichment index” value turned out to be 3.83. As for C6A U7C G8A C9A U10A, the “exon inclusion enrichment index” value turned out to be 0.265.

For G5A C6G U7G C9A A31U U32C, the “exon inclusion enrichment index” value was 0.00119.

As for G5A C6G U7G C9A U10C G11C, the “exon inclusion enrichment index” value worked out at 0.0142. Then C6A U7A C9A U10A G28U, with 0.147. As for G5U C6A U7A G8U C9U, the “exon inclusion enrichment index” value amounted to 0.0678.

With G5C C6G U7C U10C G15A C16U, the “exon inclusion enrichment index” value is 3.21. Then G5C C6G U7C U10C G15A C16A, with 3.14.
